The supplement of paper PMC10126150
± gives the standard deviation of the averaged measurements.

Tested on: ATP
Assay: switch fluorescence ratio, 500 uM ATP over buffer (Cy3 cluster intensity, sum of 5 cycles each) (fold (ratio)); higher = stronger signal-on switching upon ATP binding; sequences stand for … in TCGTCGGCAGCGTCAGATGTGTATAAGAGACAGTTTTTTTTTTTTTTTTTTTTTTTTT…TC
Details: aptamer strand: ATP DNA aptamer (quencher-CACCTGGGGGAGTATTGCGGAGGAAGG + anchor), 100 nM annealed; ATP concentration: 500 uM
Summary of the method: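 The quencher-labelled ATP aptamer, at 100 nM, was annealed to Cy3-labelled switching-strand clusters on a modified Illumina MiSeq flow-cell. The clusters were imaged in selection buffer, then after 15 min with 500 uM ATP at 22 °C, and this buffer/ATP cycle ran five times with NaOH stripping and re-annealing between runs. Per-cluster fluorescence ratios, summed target-cycle over summed buffer-cycle Cy3 intensity, were averaged per switch-domain sequence. Clusters outside 100-1000 RFU were excluded.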
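Further: ATP exposure 15 min at 22 °C before imaging.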

## GATTTGAATT
  switch fluorescence ratio: 0.977 ± 0.025

## GCGGTGATGG
  switch fluorescence ratio: 1 ± 0.035

## GGGTCCCTTG
  switch fluorescence ratio: 1 ± 0.026

## GAAATTCTAT
  switch fluorescence ratio: 0.985 ± 0.033

## GTTGATCTGC
  switch fluorescence ratio: 1 ± 0.029

## CAGAGTTTCT
  switch fluorescence ratio: 1.02 ± 0.021

## GAACAAAGGG
  switch fluorescence ratio: 0.988 ± 0.017

## GGTTTCGTCC
  switch fluorescence ratio: 1.02 ± 0.0023

## ATGTGGAGTC
  switch fluorescence ratio: 1.05 ± 0.063

## TATTCAGGGT
  switch fluorescence ratio: 1.01 ± 0.028

## TTTTCAAAGC
  switch fluorescence ratio: 1.67 ± 0.84

## TGGTACGTAG
  switch fluorescence ratio: 1.03 ± 0.034

## GTTCGACTGT
  switch fluorescence ratio: 1.024 ± 0.0042

## ACGTAGAATG
  switch fluorescence ratio: 1.06 ± 0.015

## CTAGTCACGT
  switch fluorescence ratio: 1.003 ± 0.0031

## ATATGCCCTA
  switch fluorescence ratio: 0.9674 ± 0.0077

## AGGAGAAGGG
  switch fluorescence ratio: 0.985 ± 0.018

## GATGTCCCGG
  switch fluorescence ratio: 0.987 ± 0.022

## ATTGGAGGGT
  switch fluorescence ratio: 0.979 ± 0.025

## TTTTATATAT
  switch fluorescence ratio: 1.014 ± 0.0079

## TTAAAGATGG
  switch fluorescence ratio: 1 ± 0.045

## GCTTATGAAG
  switch fluorescence ratio: 1.02 ± 0.02

## CGAAGTAGAG
  switch fluorescence ratio: 1.029 ± 0.0064

## GAATATACCG
  switch fluorescence ratio: 1.03 ± 0.042

## CGGTCTGTT
  switch fluorescence ratio: 0.9878 ± 0.0066

## TTCATATGCG
  switch fluorescence ratio: 0.995 ± 0.016

## GTTTGGTGTG
  switch fluorescence ratio: 0.975 ± 0.033

## GTCTTGGCTC
  switch fluorescence ratio: 1.02 ± 0.031

## GGGTTAAAGA
  switch fluorescence ratio: 1 ± 0.017

## ATCAGGGAGT
  switch fluorescence ratio: 1 ± 0.011

## ATAGTGTTGG
  switch fluorescence ratio: 0.986 ± 0.029

## ATAGGAGTCG
  switch fluorescence ratio: 1 ± 0.02

## AGGAGTGGGG
  switch fluorescence ratio: 1 ± 0.022

## CTCGGCCGGC
  switch fluorescence ratio: 0.982 ± 0.049

## AGGTGTATTC
  switch fluorescence ratio: 0.9962 ± 0.0058

## AGTATGGTTG
  switch fluorescence ratio: 1 ± 0.02

## GGGGTACATG
  switch fluorescence ratio: 1.022 ± 0.0055

## AATTGTGATG
  switch fluorescence ratio: 1.01 ± 0.02

## CTTTAGATGT
  switch fluorescence ratio: 0.98 ± 0.034

## TGTTAGGAGA
  switch fluorescence ratio: 1 ± 0.018

## ATGTAAAGGT
  switch fluorescence ratio: 1.04 ± 0.058

## TCTTTATTAA
  switch fluorescence ratio: 0.989 ± 0.011

## CGGGGCGGGA
  switch fluorescence ratio: 1.01 ± 0.021

## TGTTTTAGAC
  switch fluorescence ratio: 0.997 ± 0.035

## GATGGGGCGT
  switch fluorescence ratio: 0.989 ± 0.055

## ATGTGGTCGC
  switch fluorescence ratio: 0.9972 ± 0.0016

## CACTTGTTTT
  switch fluorescence ratio: 1.01 ± 0.011

## GGTGGTGGCT
  switch fluorescence ratio: 1.04 ± 0.079

## TTTCGTGTTT
  switch fluorescence ratio: 0.998 ± 0.028

## ATCAAAACTT
  switch fluorescence ratio: 1.03 ± 0.013

## GTTTGGCGT
  switch fluorescence ratio: 1.03 ± 0.045

## TTTAAAATGT
  switch fluorescence ratio: 1.12 ± 0.25

## GGCGCGCATT
  switch fluorescence ratio: 1.02 ± 0.018

## AAGGGCAGGT
  switch fluorescence ratio: 1.01 ± 0.03

## TTAGAAGTGG
  switch fluorescence ratio: 0.988 ± 0.025

## GAGGGCCAGG
  switch fluorescence ratio: 1.13 ± 0.076

## TTTTTGGTTT
  switch fluorescence ratio: 1.02 ± 0.083

## AGCTGATGTG
  switch fluorescence ratio: 1.008 ± 0.0051

## TGGGAAGGGG
  switch fluorescence ratio: 0.998 ± 0.013

## AAAAGTAGAA
  switch fluorescence ratio: 0.992 ± 0.023

## ACCCGGCTTA
  switch fluorescence ratio: 1.19 ± 0.22

## GATCTTTTTT
  switch fluorescence ratio: 1.02 ± 0.023

## GCTCTTAGCG
  switch fluorescence ratio: 1.03 ± 0.054

## TTTAGAGGGT
  switch fluorescence ratio: 0.988 ± 0.013

## GGGGATACCT
  switch fluorescence ratio: 1.04 ± 0.023

## GGGGGGCGTT
  switch fluorescence ratio: 0.998 ± 0.017

## CGGAAGGAAG
  switch fluorescence ratio: 0.946 ± 0.036

## TGCTGCAGTG
  switch fluorescence ratio: 0.966 ± 0.024

## GGAATGTTTG
  switch fluorescence ratio: 0.977 ± 0.035

## AAAAGCCGGG
  switch fluorescence ratio: 0.979 ± 0.16

## CGGGTGCAAG
  switch fluorescence ratio: 1.03 ± 0.027

## GAGATACTCT
  switch fluorescence ratio: 1.03 ± 0.012

## ATATAGACGG
  switch fluorescence ratio: 0.975 ± 0.024

## GGAGTCATTT
  switch fluorescence ratio: 1 ± 0.014

## TGTGTTTACC
  switch fluorescence ratio: 1.01 ± 0.043

## ATCCGCGCGT
  switch fluorescence ratio: 1 ± 0.014

## GTGATATAGC
  switch fluorescence ratio: 0.9807 ± 0.0071

## CACGGCACGA
  switch fluorescence ratio: 1.36 ± 0.073

## TATTTGGCAT
  switch fluorescence ratio: 1.036 ± 0.0029

## GGGAGGGAAG
  switch fluorescence ratio: 1.03 ± 0.031

## TAAGTGATG
  switch fluorescence ratio: 1 ± 0.034

## TAAGGGTAAT
  switch fluorescence ratio: 0.973 ± 0.046

## GGGGGGTTGA
  switch fluorescence ratio: 1.1 ± 0.2

## ACGGAGTAAA
  switch fluorescence ratio: 0.99939 ± 0.00086

## TTAGGGGTCC
  switch fluorescence ratio: 0.998 ± 0.022

## GCACATCTGT
  switch fluorescence ratio: 0.99 ± 0.056

## TTTCGAGTTT
  switch fluorescence ratio: 0.983 ± 0.012

## TAAGCAGGTT
  switch fluorescence ratio: 0.995 ± 0.017

## AGGTAGAAGA
  switch fluorescence ratio: 0.97 ± 0.013

## CGGCGATGGG
  switch fluorescence ratio: 1.11 ± 0.069

## GCAGGCCACA
  switch fluorescence ratio: 1.11 ± 0.065

## TGATCCGGAT
  switch fluorescence ratio: 1.02 ± 0.09

## GAGTCTTTTG
  switch fluorescence ratio: 1.013 ± 0.0096

## ATTTGCCCAT
  switch fluorescence ratio: 0.986 ± 0.019

## ATCACGGTGC
  switch fluorescence ratio: 1.1 ± 0.061

## ATGGACTAGG
  switch fluorescence ratio: 1.02 ± 0.022

## AAAATGCAG
  switch fluorescence ratio: 0.9856 ± 0.0015

## TAAAGATGG
  switch fluorescence ratio: 0.995 ± 0.027

## TCTAGCCGCG
  switch fluorescence ratio: 1.016 ± 0.0044

## GATACCGTGC
  switch fluorescence ratio: 1.18 ± 0.061

## GTAGGTAGGT
  switch fluorescence ratio: 0.99 ± 0.024

## AAAATGATTT
  switch fluorescence ratio: 1.02 ± 0.043

## TGAAATTACG
  switch fluorescence ratio: 1.03 ± 0.022

## CCAGTAGTTT
  switch fluorescence ratio: 1 ± 0.013

## TGGGTAGGCG
  switch fluorescence ratio: 1.02 ± 0.016

## AGGTAGTAAG
  switch fluorescence ratio: 0.995 ± 0.031

## ATATTATCAG
  switch fluorescence ratio: 0.986 ± 0.014

## TTTAAAGCTT
  switch fluorescence ratio: 1.01 ± 0.032

## GAGAATTGGG
  switch fluorescence ratio: 1.02 ± 0.061

## GGAGAAATTT
  switch fluorescence ratio: 0.9816 ± 0.0062

## GCTAGGAGTA
  switch fluorescence ratio: 0.987 ± 0.0091

## TTTTTGTTGG
  switch fluorescence ratio: 1 ± 0.034

## TTTTGAGTTC
  switch fluorescence ratio: 1.035 ± 0.0057

## TTGGTTTTAT
  switch fluorescence ratio: 1.02 ± 0.014

## AGGGGTGGTC
  switch fluorescence ratio: 1.04 ± 0.017

## GGTGATACGC
  switch fluorescence ratio: 1.001 ± 0.0035

## GCGGGTTACT
  switch fluorescence ratio: 1.053 ± 0.0028

## AATGTTATTG
  switch fluorescence ratio: 0.99833 ± 0.00099

## TATGAAAGGG
  switch fluorescence ratio: 1.13 ± 0.16

## GAGGCGAGTC
  switch fluorescence ratio: 1.06 ± 0.029

## TTGATTTCAG
  switch fluorescence ratio: 1.01 ± 0.013

## TCTAGCAGTT
  switch fluorescence ratio: 1.048 ± 0.0014

## TTGTGGTCGG
  switch fluorescence ratio: 0.982 ± 0.036

## TTTATAACAG
  switch fluorescence ratio: 0.982 ± 0.021

## GTCGGCAGGG
  switch fluorescence ratio: 1.06 ± 0.014

## AGCCTTTATC
  switch fluorescence ratio: 1.04 ± 0.011

## TTGCTTTGTT
  switch fluorescence ratio: 1.0015 ± 0.001

## AGTTTGTTTT
  switch fluorescence ratio: 0.966 ± 0.049

## TGCCCATGGG
  switch fluorescence ratio: 0.9956 ± 0.0045

## CAAAGGACGG
  switch fluorescence ratio: 1.25 ± 0.38

## GCGGGGTCCG
  switch fluorescence ratio: 0.97126 ± 0.00059

## GGAGCGGACG
  switch fluorescence ratio: 1 ± 0.016

## TATAATCGGT
  switch fluorescence ratio: 0.975 ± 0.014

## TGGGGTTATA
  switch fluorescence ratio: 1.02 ± 0.023

## CCTACTTGGC
  switch fluorescence ratio: 1.16 ± 0.05

## TATGGAGGCT
  switch fluorescence ratio: 1.07 ± 0.015

## GTTGTGAGGG
  switch fluorescence ratio: 0.981 ± 0.018

## CGGCCGAGAG
  switch fluorescence ratio: 1.02 ± 0.018

## CATAAAGAGT
  switch fluorescence ratio: 0.996 ± 0.01

## ATGACCGGGG
  switch fluorescence ratio: 1.02 ± 0.023

## CGTTATATTT
  switch fluorescence ratio: 1.07 ± 0.14

## TGACTGAAAA
  switch fluorescence ratio: 1.009 ± 0.007

## TGGAGTTTTT
  switch fluorescence ratio: 0.985 ± 0.032

## AGTGCGAGAG
  switch fluorescence ratio: 1.01 ± 0.029

## TACATGGTTT
  switch fluorescence ratio: 1.01 ± 0.032

## TTCCGGCTCT
  switch fluorescence ratio: 1.61 ± 0.8

## GTCCGTGTTA
  switch fluorescence ratio: 0.994 ± 0.037

## GTGAGGAGGG
  switch fluorescence ratio: 0.959 ± 0.07

## GCAATTGTCG
  switch fluorescence ratio: 1.02 ± 0.046

## GGGGGAGTCC
  switch fluorescence ratio: 0.985 ± 0.014

## GGTTACGAAG
  switch fluorescence ratio: 1.01 ± 0.044

## TTTTAGACAG
  switch fluorescence ratio: 1.01 ± 0.017

## AAGAAGAACA
  switch fluorescence ratio: 1.02 ± 0.02

## AAAAGGTGCG
  switch fluorescence ratio: 0.993 ± 0.013

## AAGTTACGT
  switch fluorescence ratio: 1.06 ± 0.025

## GTATTGGGTA
  switch fluorescence ratio: 0.99 ± 0.028

## ACAGGGGTGG
  switch fluorescence ratio: 1.02 ± 0.021
